# Measurements from FireProtDB (doi:10.1016/0301-4622(94)00157-f).
# Details: Hirudo medicinalis, Thermal, DSC, reversible: yes, whole UniProt chain shown
protein,measurement,setting,value
"Eglin C wild type, P01051 (protein) TEFGSELKSFPEVVGKTVDQAREYFTLHYPQYDVYFLPEGSPVTLDLRYNRVRVFYNPGTNVVNHVPHVG",Tm,"pH 1.1, glycine-HCl 50mM",41.1 °C
same,heat capacity change of unfolding,"pH 1.1, glycine-HCl 50mM",0.86 kcal/mol/K
same,unfolding enthalpy (calorimetric),"pH 1.1, glycine-HCl 50mM",39 kcal/mol
same,Tm,"pH 1.3, glycine-HCl 50mM",41.3 °C
same,heat capacity change of unfolding,"pH 1.3, glycine-HCl 50mM",0.97 kcal/mol/K
same,unfolding enthalpy (calorimetric),"pH 1.3, glycine-HCl 50mM",36.7 kcal/mol
same,Tm,"pH 1.65, glycine-HCl 50mM",46.1 °C
same,heat capacity change of unfolding,"pH 1.65, glycine-HCl 50mM",0.21 kcal/mol/K
same,unfolding enthalpy (calorimetric),"pH 1.65, glycine-HCl 50mM",39.3 kcal/mol
same,Tm,"pH 1.8, glycine-HCl 50mM",47.3 °C
same,heat capacity change of unfolding,"pH 1.8, glycine-HCl 50mM",0.11 kcal/mol/K
same,unfolding enthalpy (calorimetric),"pH 1.8, glycine-HCl 50mM",41.9 kcal/mol
same,Tm,"pH 2, glycine 50mM",46.9 °C
same,heat capacity change of unfolding,"pH 2, glycine 50mM",0.58 kcal/mol/K
same,unfolding enthalpy (calorimetric),"pH 2, glycine 50mM",41.3 kcal/mol
same,Tm,"pH 2.15, glycine 50mM",51.1 °C
same,heat capacity change of unfolding,"pH 2.15, glycine 50mM",0.51 kcal/mol/K
same,unfolding enthalpy (calorimetric),"pH 2.15, glycine 50mM",46.9 kcal/mol
same,Tm,"pH 2.25, glycine 50mM",51.1 °C
same,heat capacity change of unfolding,"pH 2.25, glycine 50mM",0.51 kcal/mol/K
same,unfolding enthalpy (calorimetric),"pH 2.25, glycine 50mM",46.7 kcal/mol
same,Tm,"pH 2.75, glycine 50mM",57.6 °C
same,heat capacity change of unfolding,"pH 2.75, glycine 50mM",0.35 kcal/mol/K
same,unfolding enthalpy (calorimetric),"pH 2.75, glycine 50mM",51 kcal/mol
same,Tm,"pH 2.85, glycine 50mM",59.5 °C
same,heat capacity change of unfolding,"pH 2.85, glycine 50mM",1.02 kcal/mol/K
same,unfolding enthalpy (calorimetric),"pH 2.85, glycine 50mM",52.3 kcal/mol
same,Tm,"pH 2.93, glycine 50mM",63.9 °C
same,heat capacity change of unfolding,"pH 2.93, glycine 50mM",0.44 kcal/mol/K
same,unfolding enthalpy (calorimetric),"pH 2.93, glycine 50mM",60.1 kcal/mol
same,Tm,"pH 3, glycine 50mM",63.3 °C
same,heat capacity change of unfolding,"pH 3, glycine 50mM",0.84 kcal/mol/K
same,unfolding enthalpy (calorimetric),"pH 3, glycine 50mM",57.4 kcal/mol
same,Tm,"pH 3.25, glycine 50mM",69 °C
same,heat capacity change of unfolding,"pH 3.25, glycine 50mM",0.22 kcal/mol/K
same,unfolding enthalpy (calorimetric),"pH 3.25, glycine 50mM",56.1 kcal/mol
same,Tm,"pH 7, Sodium phosphate 50mM",85.8 °C
same,heat capacity change of unfolding,"pH 7, Sodium phosphate 50mM",0.18 kcal/mol/K
same,unfolding enthalpy (calorimetric),"pH 7, Sodium phosphate 50mM",74.8 kcal/mol
same,Tm,"pH 7.01, Sodium phosphate 50mM",85.3 °C
same,heat capacity change of unfolding,"pH 7.01, Sodium phosphate 50mM",0.17 kcal/mol/K
same,unfolding enthalpy (calorimetric),"pH 7.01, Sodium phosphate 50mM",71.1 kcal/mol
same,Tm,"pH 7.05, Sodium phosphate 50mM",85.5 °C
same,heat capacity change of unfolding,"pH 7.05, Sodium phosphate 50mM",0.36 kcal/mol/K
same,unfolding enthalpy (calorimetric),"pH 7.05, Sodium phosphate 50mM",65.5 kcal/mol
same,Tm,"pH 8, Sodium phosphate 50mM",86.5 °C
same,heat capacity change of unfolding,"pH 8, Sodium phosphate 50mM",0.51 kcal/mol/K
same,unfolding enthalpy (calorimetric),"pH 8, Sodium phosphate 50mM",72.3 kcal/mol
same,Tm,"pH 9.2, bicine 50mM",86.3 °C
same,heat capacity change of unfolding,"pH 9.2, bicine 50mM",0.7 kcal/mol/K
same,unfolding enthalpy (calorimetric),"pH 9.2, bicine 50mM",72.1 kcal/mol
same,Tm,"pH 10.05, glycine 50mM",86.5 °C
same,heat capacity change of unfolding,"pH 10.05, glycine 50mM",0.53 kcal/mol/K
same,unfolding enthalpy (calorimetric),"pH 10.05, glycine 50mM",72.5 kcal/mol
same,Tm,"pH 10.5, glycine 50mM",87 °C
same,heat capacity change of unfolding,"pH 10.5, glycine 50mM",0.05 kcal/mol/K
same,unfolding enthalpy (calorimetric),"pH 10.5, glycine 50mM",73.6 kcal/mol
same,Tm,"pH 10.55, glycine 50mM",86 °C
same,heat capacity change of unfolding,"pH 10.55, glycine 50mM",0.8 kcal/mol/K
same,unfolding enthalpy (calorimetric),"pH 10.55, glycine 50mM",68.5 kcal/mol
